T1: Ep-CAM (UniProt P16422 24-265, limits assumed)
T1 construct: Antigen of the Biacore analysis of ING-1 variants
T1 sequence (looked up): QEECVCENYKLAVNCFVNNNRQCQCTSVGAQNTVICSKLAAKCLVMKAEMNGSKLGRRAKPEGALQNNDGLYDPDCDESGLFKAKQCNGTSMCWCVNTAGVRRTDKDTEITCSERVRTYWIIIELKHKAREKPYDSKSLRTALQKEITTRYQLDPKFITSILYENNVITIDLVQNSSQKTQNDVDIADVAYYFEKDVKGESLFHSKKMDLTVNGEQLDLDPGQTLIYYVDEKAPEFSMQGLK


molecular target: T1, Ep-CAM; experiment: Biacore, Fab periplasmic extract

binding result	fold difference in affinity vs original [fold]	Binder
no binding		ING-1 heavy chain N52S (Fab, V domains shown) VH: QIQLVQSGPELKKPGETVKISCKASGYTFTKYGMNWVKQAPGKGLKWMGWISTYTEEPTYGDDFKGRFAFSLETSASTANLQINNLKSEDTATYFCARFGSAVDYWGQGTSVTVSS VL: DIVMTQAAFSNPVTLGTSGSISCRSSKSLLHSNGITYLYWYLQKPGQSPQLLIYQMSNLASGVPDRFSSSGSGTDFTLRISRVEAEDVGVYYCAQNLELPRTFGGGTKLEMKR
no binding		ING-1 heavy chain T53D (Fab, V domains shown) VH: QIQLVQSGPELKKPGETVKISCKASGYTFTKYGMNWVKQAPGKGLKWMGWINDYTEEPTYGDDFKGRFAFSLETSASTANLQINNLKSEDTATYFCARFGSAVDYWGQGTSVTVSS VL: DIVMTQAAFSNPVTLGTSGSISCRSSKSLLHSNGITYLYWYLQKPGQSPQLLIYQMSNLASGVPDRFSSSGSGTDFTLRISRVEAEDVGVYYCAQNLELPRTFGGGTKLEMKR
no binding		ING-1 heavy chain T53N (Fab, V domains shown) VH: QIQLVQSGPELKKPGETVKISCKASGYTFTKYGMNWVKQAPGKGLKWMGWINNYTEEPTYGDDFKGRFAFSLETSASTANLQINNLKSEDTATYFCARFGSAVDYWGQGTSVTVSS VL: DIVMTQAAFSNPVTLGTSGSISCRSSKSLLHSNGITYLYWYLQKPGQSPQLLIYQMSNLASGVPDRFSSSGSGTDFTLRISRVEAEDVGVYYCAQNLELPRTFGGGTKLEMKR
no binding		ING-1 heavy chain T30G (Fab, V domains shown) VH: QIQLVQSGPELKKPGETVKISCKASGYTFGKYGMNWVKQAPGKGLKWMGWINTYTEEPTYGDDFKGRFAFSLETSASTANLQINNLKSEDTATYFCARFGSAVDYWGQGTSVTVSS VL: DIVMTQAAFSNPVTLGTSGSISCRSSKSLLHSNGITYLYWYLQKPGQSPQLLIYQMSNLASGVPDRFSSSGSGTDFTLRISRVEAEDVGVYYCAQNLELPRTFGGGTKLEMKR
	0.03	ING-1 heavy chain T55Q (Fab, V domains shown) VH: QIQLVQSGPELKKPGETVKISCKASGYTFTKYGMNWVKQAPGKGLKWMGWINTYQEEPTYGDDFKGRFAFSLETSASTANLQINNLKSEDTATYFCARFGSAVDYWGQGTSVTVSS VL: DIVMTQAAFSNPVTLGTSGSISCRSSKSLLHSNGITYLYWYLQKPGQSPQLLIYQMSNLASGVPDRFSSSGSGTDFTLRISRVEAEDVGVYYCAQNLELPRTFGGGTKLEMKR
no binding		ING-1 heavy chain T53W (Fab, V domains shown) VH: QIQLVQSGPELKKPGETVKISCKASGYTFTKYGMNWVKQAPGKGLKWMGWINWYTEEPTYGDDFKGRFAFSLETSASTANLQINNLKSEDTATYFCARFGSAVDYWGQGTSVTVSS VL: DIVMTQAAFSNPVTLGTSGSISCRSSKSLLHSNGITYLYWYLQKPGQSPQLLIYQMSNLASGVPDRFSSSGSGTDFTLRISRVEAEDVGVYYCAQNLELPRTFGGGTKLEMKR
no binding		ING-1 heavy chain T53H (Fab, V domains shown) VH: QIQLVQSGPELKKPGETVKISCKASGYTFTKYGMNWVKQAPGKGLKWMGWINHYTEEPTYGDDFKGRFAFSLETSASTANLQINNLKSEDTATYFCARFGSAVDYWGQGTSVTVSS VL: DIVMTQAAFSNPVTLGTSGSISCRSSKSLLHSNGITYLYWYLQKPGQSPQLLIYQMSNLASGVPDRFSSSGSGTDFTLRISRVEAEDVGVYYCAQNLELPRTFGGGTKLEMKR
	0.05	ING-1 heavy chain T55H (Fab, V domains shown) VH: QIQLVQSGPELKKPGETVKISCKASGYTFTKYGMNWVKQAPGKGLKWMGWINTYHEEPTYGDDFKGRFAFSLETSASTANLQINNLKSEDTATYFCARFGSAVDYWGQGTSVTVSS VL: DIVMTQAAFSNPVTLGTSGSISCRSSKSLLHSNGITYLYWYLQKPGQSPQLLIYQMSNLASGVPDRFSSSGSGTDFTLRISRVEAEDVGVYYCAQNLELPRTFGGGTKLEMKR
	2	ING-1 heavy chain T30Y (Fab, V domains shown) VH: QIQLVQSGPELKKPGETVKISCKASGYTFYKYGMNWVKQAPGKGLKWMGWINTYTEEPTYGDDFKGRFAFSLETSASTANLQINNLKSEDTATYFCARFGSAVDYWGQGTSVTVSS VL: DIVMTQAAFSNPVTLGTSGSISCRSSKSLLHSNGITYLYWYLQKPGQSPQLLIYQMSNLASGVPDRFSSSGSGTDFTLRISRVEAEDVGVYYCAQNLELPRTFGGGTKLEMKR
	0.9	ING-1 heavy chain P58N (Fab, V domains shown) VH: QIQLVQSGPELKKPGETVKISCKASGYTFTKYGMNWVKQAPGKGLKWMGWINTYTEENTYGDDFKGRFAFSLETSASTANLQINNLKSEDTATYFCARFGSAVDYWGQGTSVTVSS VL: DIVMTQAAFSNPVTLGTSGSISCRSSKSLLHSNGITYLYWYLQKPGQSPQLLIYQMSNLASGVPDRFSSSGSGTDFTLRISRVEAEDVGVYYCAQNLELPRTFGGGTKLEMKR
no binding		ING-1 heavy chain T53Y (Fab, V domains shown) VH: QIQLVQSGPELKKPGETVKISCKASGYTFTKYGMNWVKQAPGKGLKWMGWINYYTEEPTYGDDFKGRFAFSLETSASTANLQINNLKSEDTATYFCARFGSAVDYWGQGTSVTVSS VL: DIVMTQAAFSNPVTLGTSGSISCRSSKSLLHSNGITYLYWYLQKPGQSPQLLIYQMSNLASGVPDRFSSSGSGTDFTLRISRVEAEDVGVYYCAQNLELPRTFGGGTKLEMKR
no binding		ING-1 heavy chain T28Q (Fab, V domains shown) VH: QIQLVQSGPELKKPGETVKISCKASGYQFTKYGMNWVKQAPGKGLKWMGWINTYTEEPTYGDDFKGRFAFSLETSASTANLQINNLKSEDTATYFCARFGSAVDYWGQGTSVTVSS VL: DIVMTQAAFSNPVTLGTSGSISCRSSKSLLHSNGITYLYWYLQKPGQSPQLLIYQMSNLASGVPDRFSSSGSGTDFTLRISRVEAEDVGVYYCAQNLELPRTFGGGTKLEMKR
no binding		ING-1 heavy chain T53Q (Fab, V domains shown) VH: QIQLVQSGPELKKPGETVKISCKASGYTFTKYGMNWVKQAPGKGLKWMGWINQYTEEPTYGDDFKGRFAFSLETSASTANLQINNLKSEDTATYFCARFGSAVDYWGQGTSVTVSS VL: DIVMTQAAFSNPVTLGTSGSISCRSSKSLLHSNGITYLYWYLQKPGQSPQLLIYQMSNLASGVPDRFSSSGSGTDFTLRISRVEAEDVGVYYCAQNLELPRTFGGGTKLEMKR
no binding		ING-1 heavy chain N52W (Fab, V domains shown) VH: QIQLVQSGPELKKPGETVKISCKASGYTFTKYGMNWVKQAPGKGLKWMGWIWTYTEEPTYGDDFKGRFAFSLETSASTANLQINNLKSEDTATYFCARFGSAVDYWGQGTSVTVSS VL: DIVMTQAAFSNPVTLGTSGSISCRSSKSLLHSNGITYLYWYLQKPGQSPQLLIYQMSNLASGVPDRFSSSGSGTDFTLRISRVEAEDVGVYYCAQNLELPRTFGGGTKLEMKR
no binding		ING-1 heavy chain T53F (Fab, V domains shown) VH: QIQLVQSGPELKKPGETVKISCKASGYTFTKYGMNWVKQAPGKGLKWMGWINFYTEEPTYGDDFKGRFAFSLETSASTANLQINNLKSEDTATYFCARFGSAVDYWGQGTSVTVSS VL: DIVMTQAAFSNPVTLGTSGSISCRSSKSLLHSNGITYLYWYLQKPGQSPQLLIYQMSNLASGVPDRFSSSGSGTDFTLRISRVEAEDVGVYYCAQNLELPRTFGGGTKLEMKR
	0.03	ING-1 heavy chain T55F (Fab, V domains shown) VH: QIQLVQSGPELKKPGETVKISCKASGYTFTKYGMNWVKQAPGKGLKWMGWINTYFEEPTYGDDFKGRFAFSLETSASTANLQINNLKSEDTATYFCARFGSAVDYWGQGTSVTVSS VL: DIVMTQAAFSNPVTLGTSGSISCRSSKSLLHSNGITYLYWYLQKPGQSPQLLIYQMSNLASGVPDRFSSSGSGTDFTLRISRVEAEDVGVYYCAQNLELPRTFGGGTKLEMKR
	0.03	ING-1 heavy chain T55D (Fab, V domains shown) VH: QIQLVQSGPELKKPGETVKISCKASGYTFTKYGMNWVKQAPGKGLKWMGWINTYDEEPTYGDDFKGRFAFSLETSASTANLQINNLKSEDTATYFCARFGSAVDYWGQGTSVTVSS VL: DIVMTQAAFSNPVTLGTSGSISCRSSKSLLHSNGITYLYWYLQKPGQSPQLLIYQMSNLASGVPDRFSSSGSGTDFTLRISRVEAEDVGVYYCAQNLELPRTFGGGTKLEMKR
no binding		ING-1 heavy chain T53E (Fab, V domains shown) VH: QIQLVQSGPELKKPGETVKISCKASGYTFTKYGMNWVKQAPGKGLKWMGWINEYTEEPTYGDDFKGRFAFSLETSASTANLQINNLKSEDTATYFCARFGSAVDYWGQGTSVTVSS VL: DIVMTQAAFSNPVTLGTSGSISCRSSKSLLHSNGITYLYWYLQKPGQSPQLLIYQMSNLASGVPDRFSSSGSGTDFTLRISRVEAEDVGVYYCAQNLELPRTFGGGTKLEMKR
no binding		ING-1 heavy chain N52Y (Fab, V domains shown) VH: QIQLVQSGPELKKPGETVKISCKASGYTFTKYGMNWVKQAPGKGLKWMGWIYTYTEEPTYGDDFKGRFAFSLETSASTANLQINNLKSEDTATYFCARFGSAVDYWGQGTSVTVSS VL: DIVMTQAAFSNPVTLGTSGSISCRSSKSLLHSNGITYLYWYLQKPGQSPQLLIYQMSNLASGVPDRFSSSGSGTDFTLRISRVEAEDVGVYYCAQNLELPRTFGGGTKLEMKR
no binding		ING-1 heavy chain T55E (Fab, V domains shown) VH: QIQLVQSGPELKKPGETVKISCKASGYTFTKYGMNWVKQAPGKGLKWMGWINTYEEEPTYGDDFKGRFAFSLETSASTANLQINNLKSEDTATYFCARFGSAVDYWGQGTSVTVSS VL: DIVMTQAAFSNPVTLGTSGSISCRSSKSLLHSNGITYLYWYLQKPGQSPQLLIYQMSNLASGVPDRFSSSGSGTDFTLRISRVEAEDVGVYYCAQNLELPRTFGGGTKLEMKR
no binding		ING-1 heavy chain T53R (Fab, V domains shown) VH: QIQLVQSGPELKKPGETVKISCKASGYTFTKYGMNWVKQAPGKGLKWMGWINRYTEEPTYGDDFKGRFAFSLETSASTANLQINNLKSEDTATYFCARFGSAVDYWGQGTSVTVSS VL: DIVMTQAAFSNPVTLGTSGSISCRSSKSLLHSNGITYLYWYLQKPGQSPQLLIYQMSNLASGVPDRFSSSGSGTDFTLRISRVEAEDVGVYYCAQNLELPRTFGGGTKLEMKR

Reference: patent US20110118131A1 (published 2011)
